The target of experiment [1] is T1, Mouse Complement C5 Protein (mouse, UniProt P06684 19-1680, limits assumed, biotinylated in the Octet assay (sites not given)).
T1 construct: native C5 of normal mouse serum in the hemolysis assays; also called Mouse C5; mC5
Description: BLI (OctetRED384), biotinylated mouse C5 on SA biosensor, BB5.1 scFv.LH as analyte, 30 C.

Experiment [2] has as its target T1, Mouse Complement C5 Protein. Description: BLI (OctetRED384), biotinylated mouse C5 on SA biosensor, BB5.1 IgG as analyte, 30 C.
Description: (§1) The assay was performed at 30° C. and at 1000 rpm. Biotinylated mouse C5 antigen was firstly immobilized onto SA biosensor.
For experiment [3] the target is unchanged. The experiment in a line: BLI (OctetRED384), biotinylated mouse C5 on SA biosensor, BB5.1-Fab-His6 as analyte, 30 C.
Description: as §1
Experiment [4] addresses T2, Cyno Complement C5 Protein (cynomolgous macaque).
T2 construct: also called Cyno C5; Biotinylated cyno C5 antigen
Description: BLI (OctetRED384), biotinylated cyno C5 on SA biosensor, Crovalimab scFv.HL as analyte, 30 C.

Experiment [5] addresses T1, Mouse Complement C5 Protein. The experiment in a line: BLI (OctetRED384), biotinylated mouse C5 on SA biosensor, Crovalimab scFv.HL as analyte, 30 C.
Description: as §1
The target of experiment [6] is T2, Cyno Complement C5 Protein. Description: BLI (OctetRED384), biotinylated cyno C5 on SA biosensor, Crovalimab IgG as analyte, 30 C.
Description: The assay was performed at 30° C. and at 1000 rpm. Biotinylated cyno C5 antigen was firstly immobilized onto SA biosensor.
For experiment [7], the target named is T1, Mouse Complement C5 Protein. The experiment in a line: BLI (OctetRED384), biotinylated mouse C5 on SA biosensor, Crovalimab IgG as analyte, 30 C.
Description: as §1
Experiment [8] addresses T2, Cyno Complement C5 Protein. The experiment in a line: BLI (OctetRED384), biotinylated cyno C5 on SA biosensor, Crovalimab-Fab-His6 as analyte, 30 C.
The target of experiment [9] is T1, Mouse Complement C5 Protein. The experiment in a line: BLI (OctetRED384), biotinylated mouse C5 on SA biosensor, Crovalimab-Fab-His6 as analyte, 30 C.
Description: as §1

Drawing on patent publication US20260034246A1 (REGENXBIO, published 2026), this text covers Kd for 6 molecules.

B1: BB5.1 scFv.LH (scFv)
scFv: NIMMTQSPSSLAVSAGEKVTMSCKSSQSVLYSSNQKNYLAWYQQKPGQSPKLLIYWASTRESGVPDRFTGSGSGTDFTLTISSVQAEDLAVYYCHQYLSSRTFGGGTKLEIKRGGGGSGGGGSGGGGSQVQLQQPGAELVRPGTSVKLSCKASGYTFTSSWMHWVKQRPGQGLEWIGVIDPSDSYTNYNQKFKGKATLTVDTSSSTAYMQLSSLTSEDSAVYYCARGGGSSYNRYFDVWGTGTTVTVSS
notes: also called Anti-mC5 scFV; BB5.1 scFv mAb
Turning to B1, the Kd in experiment [1] was 3.69 nM.

B2: BB5.1 IgG (full-length mAb) (antibody, V domains shown)
VH: QVQLQQPGAELVRPGTSVKLSCKASGYTFTSSWMHWVKQRPGQGLEWIGVIDPSDSYTNYNQKFKGKATLTVDTSSSTAYMQLSSLTSEDSAVYYCARGGGSSYNRYFDVWGTGTTVTVSS
VL: NIMMTQSPSSLAVSAGEKVTMSCKSSQSVLYSSNQKNYLAWYQQKPGQSPKLLIYWASTRESGVPDRFTGSGSGTDFTLTISSVQAEDLAVYYCHQYLSSRTFGGGTKLEIKR
notes: Surrogate anti-mouse C5 mAb; purified recombinant protein expressed in HEK293 cells; also called Anti-mC5 IgG; BB5.1 full-length mAb
Turning to B2, the Kd in [2] came to 0.0121 nM.

B3: BB5.1-Fab-His6 (Fab, V domains shown)
VH: QVQLQQPGAELVRPGTSVKLSCKASGYTFTSSWMHWVKQRPGQGLEWIGVIDPSDSYTNYNQKFKGKATLTVDTSSSTAYMQLSSLTSEDSAVYYCARGGGSSYNRYFDVWGTGTTVTVSS
VL: NIMMTQSPSSLAVSAGEKVTMSCKSSQSVLYSSNQKNYLAWYQQKPGQSPKLLIYWASTRESGVPDRFTGSGSGTDFTLTISSVQAEDLAVYYCHQYLSSRTFGGGTKLEIKR
notes: also called Anti-mC5 Fab; BB5.1 Fab mAb
As for B3, the Kd in experiment [3] turned out to be 3.47 nM.

B4: Crovalimab scFv.HL (scFv)
scFv: QVQLVESGGGLVQPGRSLRLSCAASGFTVHSSYYMAWVRQAPGKGLEWVGAIFTGSGAEYKAEWAKGRVTISKDTSKNQVVLTMTNMDPVDTATYYCASDAGYDYPTHAMHYWGQGTLVTVSSGGGGSGGGGSGGGGSDIQMTQSPSSLSASVGDRVTITCRASQGISSSLAWYQQKPGKAPKLLIYGASETESGVPSRFSGSGSGTDFTLTISSLQPEDFATYYCQNTKVGSSYGNTFGGGTKVEIKR
notes: also called Anti-hC5 scFV; Crovalimab scFv mAb
Regarding B4, the figures for the Kd in experiment [4] and in [5] were 0.0845 nM and 4.54 nM, respectively.

B5: Crovalimab IgG (full-length mAb) (antibody, V domains shown)
VH: QVQLVESGGGLVQPGRSLRLSCAASGFTVHSSYYMAWVRQAPGKGLEWVGAIFTGSGAEYKAEWAKGRVTISKDTSKNQVVLTMTNMDPVDTATYYCASDAGYDYPTHAMHYWGQGTLVTVSS
VL: DIQMTQSPSSLSASVGDRVTITCRASQGISSSLAWYQQKPGKAPKLLIYGASETESGVPSRFSGSGSGTDFTLTISSLQPEDFATYYCQNTKVGSSYGNTFGGGTKVEIKR
notes: also called Anti-hC5 IgG; Crovalimab full-length mAb
B5: the equilibrium dissociation constant (Kd) in experiment [6] was 0.0131 nM; in experiment [7], 0.0229 nM.

B6: Crovalimab-Fab-His6 (Fab, V domains shown)
VH: QVQLVESGGGLVQPGRSLRLSCAASGFTVHSSYYMAWVRQAPGKGLEWVGAIFTGSGAEYKAEWAKGRVTISKDTSKNQVVLTMTNMDPVDTATYYCASDAGYDYPTHAMHYWGQGTLVTVSS
VL: DIQMTQSPSSLSASVGDRVTITCRASQGISSSLAWYQQKPGKAPKLLIYGASETESGVPSRFSGSGSGTDFTLTISSLQPEDFATYYCQNTKVGSSYGNTFGGGTKVEIKR
notes: also called Anti-hC5 Fab; Crovalimab Fab mAb
In the case of B6, the dissociation constant (Kd) is 0.0602 nM in experiment [8] and 4.14 nM in experiment [9].

One may read the Kd as the constant that tells how readily two partners part at equilibrium. Higher therefore signals weaker binding.
